T1: Spf1p (Saccharomyces cerevisiae, UniProt P39986)
T1 construct: gene SPF1; full length with C-terminal FLAG-RGS10His tag; expressed in spf1-deleted yeast (BY4741 background), purified, re-lipidated in mixed yeast polar lipid/detergent micelles; persistent dimer seen on SDS-PAGE
T1 sequence (P39986 1-1215): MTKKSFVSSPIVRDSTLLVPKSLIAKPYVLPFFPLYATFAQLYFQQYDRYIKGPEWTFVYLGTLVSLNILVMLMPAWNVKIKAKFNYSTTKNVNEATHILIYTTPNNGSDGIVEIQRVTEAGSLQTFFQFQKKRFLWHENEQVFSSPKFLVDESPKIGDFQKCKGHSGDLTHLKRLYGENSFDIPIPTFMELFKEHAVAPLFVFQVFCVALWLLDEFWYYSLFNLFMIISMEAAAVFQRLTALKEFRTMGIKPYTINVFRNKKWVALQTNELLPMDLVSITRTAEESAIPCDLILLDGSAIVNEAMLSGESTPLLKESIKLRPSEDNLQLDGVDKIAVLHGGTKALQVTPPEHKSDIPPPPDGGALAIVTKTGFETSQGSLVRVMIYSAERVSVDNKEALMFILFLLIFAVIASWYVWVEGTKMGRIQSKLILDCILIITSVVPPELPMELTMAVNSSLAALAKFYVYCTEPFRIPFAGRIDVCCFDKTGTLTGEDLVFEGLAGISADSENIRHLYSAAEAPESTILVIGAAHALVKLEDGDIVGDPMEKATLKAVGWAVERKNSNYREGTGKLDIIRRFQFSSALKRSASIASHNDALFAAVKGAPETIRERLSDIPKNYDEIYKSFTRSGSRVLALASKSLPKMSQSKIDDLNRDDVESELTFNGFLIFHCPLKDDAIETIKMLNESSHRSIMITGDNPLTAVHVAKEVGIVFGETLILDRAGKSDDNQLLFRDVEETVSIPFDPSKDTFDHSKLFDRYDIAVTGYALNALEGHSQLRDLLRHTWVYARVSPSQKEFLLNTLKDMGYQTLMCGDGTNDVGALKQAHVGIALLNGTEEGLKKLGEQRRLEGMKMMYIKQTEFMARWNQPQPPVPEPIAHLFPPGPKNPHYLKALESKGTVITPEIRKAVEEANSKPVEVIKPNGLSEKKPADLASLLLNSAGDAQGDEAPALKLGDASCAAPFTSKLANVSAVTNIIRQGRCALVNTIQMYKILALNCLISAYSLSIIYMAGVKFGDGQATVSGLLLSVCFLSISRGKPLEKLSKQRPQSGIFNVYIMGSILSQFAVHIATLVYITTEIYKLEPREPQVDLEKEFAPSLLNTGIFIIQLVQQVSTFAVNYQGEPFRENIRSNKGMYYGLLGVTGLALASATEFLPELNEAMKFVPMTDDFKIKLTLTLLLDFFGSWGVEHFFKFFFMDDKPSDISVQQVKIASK


Key:
Spf1p = target: T1, Spf1p; assay: ATPase assay, phosphate release (molybdate colorimetric); assay type: biochemical
Source text: ATPase assay, phosphate release (molybdate colorimetric) on Spf1p | Vanadate sensitivity of Spf1p in mixed YPL/OG micelles

[1] = substrate: Nc1ncnc2c1ncn2[C@@H]1O[C@H](COP(=O)(O)OP(=O)(O)OP(=O)(O)O)[C@@H](O)[C@H]1O; assay: as above; assay type: biochemical, Saccharomyces cerevisiae; conditions: YPL/OG micelles (0.35% w/w OG); Mg2+; Michaelis-Menten fit
Source text: ATPase assay, phosphate release (molybdate colorimetric) on Spf1p | ATP affinity of Spf1p in YPL/OG micelles

[2] = target: the molecule itself; assay: SDS-PAGE of the purified protein (band at twice the expected size); purified fractions run on SDS-PAGE gels, strongly denaturing conditions; bands of the full-length protein identified by mass spectrometry (S1 Fig)

Molecule | Ki (Spf1p) [µM] | Km [1] [µM] | binding result [2]
[O]=[V]([OH])([OH])[OH] [vanadate] | 10.3 ± 0.747 | – | –
Saccharomyces cerevisiae P5A ATPase Spf1p (enzyme, UniProt P39986 1-1215, looked up, Spf1p, P5A-type ATPase of the endoplasmic reticulum, Saccharomyces cerevisiae, full length; The abstract speaks of a purified 'functional tagged version'; removal of the tag is not mentioned; also called full length Spf1p; full-length expression construct (Spf1p); not shown: FLAG, C-terminal, kept; RGS10His, C-terminal, kept) MTKKSFVSSPIVRDSTLLVPKSLIAKPYVLPFFPLYATFAQLYFQQYDRYIKGPEWTFVYLGTLVSLNILVMLMPAWNVKIKAKFNYSTTKNVNEATHILIYTTPNNGSDGIVEIQRVTEAGSLQTFFQFQKKRFLWHENEQVFSSPKFLVDESPKIGDFQKCKGHSGDLTHLKRLYGENSFDIPIPTFMELFKEHAVAPLFVFQVFCVALWLLDEFWYYSLFNLFMIISMEAAAVFQRLTALKEFRTMGIKPYTINVFRNKKWVALQTNELLPMDLVSITRTAEESAIPCDLILLDGSAIVNEAMLSGESTPLLKESIKLRPSEDNLQLDGVDKIAVLHGGTKALQVTPPEHKSDIPPPPDGGALAIVTKTGFETSQGSLVRVMIYSAERVSVDNKEALMFILFLLIFAVIASWYVWVEGTKMGRIQSKLILDCILIITSVVPPELPMELTMAVNSSLAALAKFYVYCTEPFRIPFAGRIDVCCFDKTGTLTGEDLVFEGLAGISADSENIRHLYSAAEAPESTILVIGAAHALVKLEDGDIVGDPMEKATLKAVGWAVERKNSNYREGTGKLDIIRRFQFSSALKRSASIASHNDALFAAVKGAPETIRERLSDIPKNYDEIYKSFTRSGSRVLALASKSLPKMSQSKIDDLNRDDVESELTFNGFLIFHCPLKDDAIETIKMLNESSHRSIMITGDNPLTAVHVAKEVGIVFGETLILDRAGKSDDNQLLFRDVEETVSIPFDPSKDTFDHSKLFDRYDIAVTGYALNALEGHSQLRDLLRHTWVYARVSPSQKEFLLNTLKDMGYQTLMCGDGTNDVGALKQAHVGIALLNGTEEGLKKLGEQRRLEGMKMMYIKQTEFMARWNQPQPPVPEPIAHLFPPGPKNPHYLKALESKGTVITPEIRKAVEEANSKPVEVIKPNGLSEKKPADLASLLLNSAGDAQGDEAPALKLGDASCAAPFTSKLANVSAVTNIIRQGRCALVNTIQMYKILALNCLISAYSLSIIYMAGVKFGDGQATVSGLLLSVCFLSISRGKPLEKLSKQRPQSGIFNVYIMGSILSQFAVHIATLVYITTEIYKLEPREPQVDLEKEFAPSLLNTGIFIIQLVQQVSTFAVNYQGEPFRENIRSNKGMYYGLLGVTGLALASATEFLPELNEAMKFVPMTDDFKIKLTLTLLLDFFGSWGVEHFFKFFFMDDKPSDISVQQVKIASK | – | 133.2 ± 18.9 | binds

From paper PMC9584430, “ATP hydrolytic activity of purified Spf1p correlate with micellar lipid fluidity and is dependent on conserved residues in transmembrane helix M1” (PLoS ONE, 2022)
